Experimental data: patent US20240101673A1 (MOZART THERAPEUTICS, published 2024)

How the values were obtained:
CD8 [1] = target: CD8 (Homo sapiens); experiment: titration on CD8+ T cells, gMFI (flow cytometry)
CD8 [2] = target: CD8 (Homo sapiens); experiment: titration on the CXCR3 CD39 CD8 T cell subset, gMFI (flow cytometry)
[3] = target: T1, KIR2DL1 tagged with a hexahistidine peptide (UniProt P43626 22-245, limits assumed); experiment: BLI (Octet), CrossMAb captured on AHC anti-human Fc biosensors, analyte 6.25-200 nM
T1 construct: Soluble analyte in the Octet assays; also called KIRDL1; not shown: hexahistidine tag (HHHHHH)
T1 sequence (P43626 22-245 limits assumed): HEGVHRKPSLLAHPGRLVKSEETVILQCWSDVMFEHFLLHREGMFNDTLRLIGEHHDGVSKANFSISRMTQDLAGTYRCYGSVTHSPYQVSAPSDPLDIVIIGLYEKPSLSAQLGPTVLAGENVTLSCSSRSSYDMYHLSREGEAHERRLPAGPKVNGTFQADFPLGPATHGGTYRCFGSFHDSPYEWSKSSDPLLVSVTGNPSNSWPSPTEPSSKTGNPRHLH

[4] = target: T2, KIR2DL3 tagged with a hexahistidine peptide (UniProt P43628 22-245, limits assumed); experiment: as above
T2 construct: Soluble analyte in the Octet assays; not shown: hexahistidine tag (HHHHHH)
T2 sequence (P43628 22-245 limits assumed): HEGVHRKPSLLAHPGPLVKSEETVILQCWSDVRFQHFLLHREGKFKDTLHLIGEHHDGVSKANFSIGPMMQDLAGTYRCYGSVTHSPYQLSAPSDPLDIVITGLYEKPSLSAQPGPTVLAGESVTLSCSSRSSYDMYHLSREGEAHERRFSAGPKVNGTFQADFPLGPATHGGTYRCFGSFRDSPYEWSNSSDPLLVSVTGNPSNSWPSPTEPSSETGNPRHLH

[5] = target: T3, CD8alpha tagged with a hexahistidine peptide (UniProt P01732 22-182, limits assumed); experiment: as above
T3 construct: Soluble analyte in the Octet assays; not shown: hexahistidine tag (HHHHHH)
T3 sequence (P01732 22-182 limits assumed): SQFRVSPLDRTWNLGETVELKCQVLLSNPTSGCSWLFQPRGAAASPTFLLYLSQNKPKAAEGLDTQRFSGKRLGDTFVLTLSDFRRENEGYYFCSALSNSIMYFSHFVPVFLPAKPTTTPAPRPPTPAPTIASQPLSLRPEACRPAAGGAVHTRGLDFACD

[6] = target: T3, CD8alpha tagged with a hexahistidine …; experiment: BLI (Octet), antibody captured on AHC anti-human Fc biosensors, analyte 6.25-200 nM
Experimental: The affinities of the parental antibodies anti-KIR2DL1/L2/L3 IPH2102 IgG1 r mAb and anti-CD8alpha Mb1 b IgG1r mAb were also analyzed. For kinetic analysis, the parental antibodies were separately captured to AHC (anti-human Fc) biosensors using a load concentration of 1.25 ug/ml. For IPH2102 IgG1r mAb, the KIR2DL1, or KIR2DL3 analytes ranged from 6.25 nM to 200 nM. Analyte binding following capture was analyzed first for association of KIR2DL1 or KIR2DL3 followed by the dissociation of each analyte independently. Likewise, for the Mb1b IgG1r mAb, the CD8alpha analyte ranged from 6.25 nM to 200 nM. Analyte binding following capture was analyzed first for association followed by the dissociation of CD8alpha.

CD8 (Homo sapiens), sequence (chain, as listed by the source): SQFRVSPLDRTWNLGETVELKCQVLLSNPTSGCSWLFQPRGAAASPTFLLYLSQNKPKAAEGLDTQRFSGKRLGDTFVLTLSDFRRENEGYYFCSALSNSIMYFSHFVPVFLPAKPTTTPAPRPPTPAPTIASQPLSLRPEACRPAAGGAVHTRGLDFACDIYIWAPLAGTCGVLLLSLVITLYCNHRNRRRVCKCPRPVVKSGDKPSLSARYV

B1: KIR2DLxCD8 bispecific (bispecific antibody)
chain 1: QVQLVQSGAEVKKPGSSVKVSCKASGGTFSFYAISWVRQAPGQGLEWMGGFIPIFGAANYAQKFQGRVTITADESTSTAYMELSSLRSDDTAVYYCARIPSGSYYYDYDMDVWGQGTTVTVSS
chain 2: EIVLTQSPVTLSLSPGERATLSCRASQSVSSYLAWYQQKPGQAPRLLIYDASNRATGIPARFSGSGSGTDFTLTISSLEPEDFAVYYCQQRSNWMYTFGQGTKLEIK
chain 3: EVQLVESGGGLVQPGGSLRLSCAASGFNIKDTYIHFVRQAPGKGLEWIGRIDPANDNTLYASKFQGKATISADTSKNTAYLQMNSLRAEDTAVYYCGRGYGYYVFDHWGQGTLVTVSS
chain 4: DVQITQSPSSLSASVGDRVTITCRTSRSISQYLAWYQQKPGKVPKLLIYSGSTLQSGVPSRFSGSGSGTDFTLTISSLQPEDVATYYCQQHNENPLTFGGGTKVEIK
With B1 the “EC50 (read off the curve)” value (CD8 [1]) was ~40 nM and the “EC50 (read off the curve)” value (CD8 [2]) was ~100 nM.

B2: IPH2102/Mb1b CrossMAb (bispecific antibody)
chain 1: B1 chain 1
chain 2: B1 chain 2
chain 3: B1 chain 3
chain 4: B1 chain 4
B2 was tested, and the Kd [3] was 1.52 nM, the Kd [4] was 0.88 nM and the Kd [5] was 2.07 nM.

B3: Mb1b IgG1 r mAb (antibody, V domains shown)
VH: B1 chain 3
VL: B1 chain 4
notes: also called Mb1b parental antibody; anti-CD8alpha Mb1 b IgG1r mAb
Binder B3 has a Kd [6] of 2.6 nM.
